Laboratory results as given in US20230265217A1.

B1: 7-26 (VHH)
VHH: EVQLVESGGGLVQPGGSLRLSCAASGSTFSINAMGWFRQAPGKEREFVAGITSSGGYTNYADSVKGRFTISADNSKNTAYLQMNSLKPEDTAVYYCAADGVPEYSDYASGPVWGQGTLVTVSS
B2: 3-31 (VHH)
VHH: B1 VHH

How the values were obtained:
Details in all cases: remark: other sources report otherwise
[1] = biological target: SARS-CoV-2 S protein trimer [SPN-C52H9] (SARS-CoV-2), P0DTC2; assay: binding kinetics, Carterra SPR
[2] = biological target: T1, SARS-CoV-2 S protein trimer (Delta B.1.617.2 India variant) [SPN-C52He] (SARS-CoV-2), P0DTC2; assay: binding kinetics, Carterra SPR
[3] = biological target: T2, SARS-CoV-2 S protein trimer (Kappa B.1.617.1 India variant) [SPN-C52Hr] (SARS-CoV-2), P0DTC2; assay: binding kinetics, Carterra SPR
[4] = biological target: T3, SARS-CoV-2 S protein trimer (Alpha B.1.1.7 UK variant) [SPN-C52H6] (SARS-CoV-2), P0DTC2; assay: binding kinetics, Carterra SPR
[5] = biological target: T4, SARS-CoV-2 S protein trimer (Beta B.1.351 SA variant) [SPN-C52Hk] (SARS-CoV-2), P0DTC2; assay: binding kinetics, Carterra SPR
[6] = biological target: S1 RBD L452R E484Q (Acro) (SARS-CoV-2), P0DTC2; assay: Carterra SPR
[7] = biological target: SARS-CoV-2 S protein trimer [SPN-C52H7] (SARS-CoV-2), P0DTC2; assay: Carterra SPR
[8] = biological target: T1, SARS-CoV-2 S protein trimer (Delta …); assay: Carterra SPR
[9] = biological target: T2, SARS-CoV-2 S protein trimer (Kappa …); assay: Carterra SPR
[10] = biological target: T3, SARS-CoV-2 S protein trimer (Alpha …); assay: Carterra SPR
[11] = biological target: SARS-CoV-2 S protein trimer (P.1 Gamma Brazil variant) [SPN-C52Hg] (SARS-CoV-2), P0DTC2; assay: Carterra SPR
[12] = biological target: T4, SARS-CoV-2 S protein trimer (Beta …); assay: Carterra SPR

Row | Binder | Kd [1] [pM] | koff [1] [s⁻¹] | kon [1] [M⁻¹ s⁻¹] | Kd [2] [pM] | koff [2] [s⁻¹] | kon [2] [M⁻¹ s⁻¹] | Kd [3] [pM] | koff [3] [s⁻¹] | kon [3] [M⁻¹ s⁻¹] | Kd [4] [pM] | koff [4] [s⁻¹] | kon [4] [M⁻¹ s⁻¹] | Kd [5] [pM] | koff [5] [s⁻¹] | kon [5] [M⁻¹ s⁻¹] | Kd [6] [pM] | other results
1 | B1 | < 11 | < 1e-05 | 911000 | < 10.4 | < 1e-05 | 958000 | < 8.52 | < 1e-05 | 1.17e+06 | < 9.65 | < 1e-05 | 1.04e+06 | < 8.08 | < 1e-05 | 1.24e+06 | 18000 | 
2 | B2 | < 13.6 | < 1e-05 | 734000 | < 10.7 | < 1e-05 | 938000 | < 10 | < 1e-05 | 1e+06 | < 10.8 | < 1e-05 | 925000 | < 9.8 | < 1e-05 | 1.02e+06 | 16200 | Kd [7]: < 16.7 pM; koff [7]: < 1e-05 s⁻¹; kon [7]: 600000 M⁻¹ s⁻¹; Kd [8]: 13.4 pM; koff [8]: 1e-05 s⁻¹; kon [8]: 744000 M⁻¹ s⁻¹; Kd [9]: 12.9 pM; koff [9]: 1e-05 s⁻¹; kon [9]: 777000 M⁻¹ s⁻¹; Kd [10]: 14.3 pM; koff [10]: 1e-05 s⁻¹; kon [10]: 699000 M⁻¹ s⁻¹; Kd [11]: < 12 pM; koff [11]: < 1e-05 s⁻¹; kon [11]: 834000 M⁻¹ s⁻¹; Kd [12]: 11.7 pM; koff [12]: 1e-05 s⁻¹; kon [12]: 851000 M⁻¹ s⁻¹
